For orientation: IC50 means the concentration that inhibits the measured activity by half.

A value given as a limit tells only on which side of the number the result lay.

The values below come from patent publication US20200352914A1, “METHODS OF TREATING HYPERTENSION WITH ACTIVATORS OF TIE-2” (Aerpio Pharmaceuticals, Inc., priority 2019, published 2020).

One test addresses HPTPβ (Homo sapiens, UniProt P23467). The test can be described thus: HPTPβ inhibitory activity (IC50). It counts as biochemical.
The test system of a further test is eNOS. In words: eNOS and Akt phosphorylation in human endothelial cells (immunoprecipitation, immunoblotting). It counts as cell-based. On the procedure: Confluent monolayers of human endothelial cells expressing FLAG-tagged eNOS cultured overnight in MCDB131 containing 0.1% BSA and then incubated with increasing concentrations of Compound 2 (0.3-30 μmol/L) or solvent (DMSO) for 30 minutes. In separate experiments, human endothelial cells were cultured overnight in MCDB131 containing 0.1% BSA and then incubated treated with Compound 2 (30 μmol/L) or solvent for 30 minutes and then stimulated with Yoda1 (1 μmol/L) or solvent for an additional 30 minutes. To inhibit Src, cells were pre-incubated with PP2 (1 μmol/L) for 30 min before incubation with Compound 2 and stimulation with Yoda1. After two washes with cold PBS, cells were collected with the aid of cell scrapers in a lysis buffer containing Tris/HCl pH 7.5 (50 mmol/L), NaCl (150 mmol/L), Triton X-100 (1%), NaPPi (10 mmol/L), NaF (20 mmol/L), orthovanadate (2 mmol/L), okadaic acid (10 nmol/L), β-glycerophosphate (50 mmol/L), phenylmethylsulfonyl fluoride (230 μmol/L), and EDTA-free protease inhibitors mix. The cell mixture was incubated for 30 minutes at 4° C. with vortexing, followed by centrifugation at 13000 rpm for 10 minutes at 4° C. To assess the eNOS-VE-PTP interaction, the following modifications were applied: 1) cells were incubated with the lysis buffer for one hour on an end-over-end rocker at 4° C. and gently vortexed until no cell clumps were observed; 2) lysates were not centrifuged after lysis. FLAG-tagged eNOS was immunoprecipitated using 30 μL of packed Anti-FLAG M2 Affinity Gel per mg protein lysate overnight. The recovered immunoprecipitates were washed three times with the lysis buffer, eluted by boiling samples for 10 minutes in SDS sample buffer, and then analyzed by SDS-PAGE and immunoblotting.
Protein samples were separated by SDS-PAGE and then transferred to […] nitrocellulose membranes. Membranes were incubated overnight with primary antibodies against phospho-Tyr81 eNOS, phospho-Ser1177 eNOS, phospho-Ser633 eNOS, eNOS, phospho-Ser473 Akt, Akt, ABL1, VE-PTP, GAPDH, β-actin, followed by species-specific secondary antibodies anti-IgG conjugated with HRP. Proteins were visualized by enhanced chemiluminescence.
(In general: A western blot detects proteins with antibodies after separation by electrophoresis.)

The subject of a further test is Tie-2. In words: Tie-2 phosphorylation in hypoxic HUVECs. In kind it is cell-based, human. To be noted: HUVECs hypoxic 16 h; ANG-1 alone 500 ng/mL. As for the experimental part:
HUVECs cultured under hypoxic conditions for 16 hours were treated with 5 μM Compound 1 for 10 minutes in the presence or absence of ANG-1 or ANG-2 (500 ng/mL). Untreated cells served as controls. The cells were then lysed and Tie-2 was immunoprecipitated and probed with anti-phosphotyrosine (p-Tyr) to indicate Tie-2 activation, or anti-Tie-2 as a loading control.

In the next test the test system is subjects with DME. In words: Sitting systolic blood pressure and pulse rate in subjects with DME, Compound 1 with or without ranibizumab (Example 9, TABLE 27). It counts as in vivo, human. As for the experimental part: A total of 144 subjects with DME were split into 3 treatment groups. Group 1 received a subcutaneous injection of Compound 1 (15 mg) and a sham intravitreal injection. Group 2 received a subcutaneous injection of Compound 1 (15 mg) and an intravitreal injection of ranibizumab (0.3 mg). Group 3 received a subcutaneous injection of a placebo, and an intravitreal injection of ranibizumab (0.3 mg).
FIG. 19 and TABLE 27 show the effect of Compound 1 treatment, both alone and in combination with ranibizumab, on the sitting systolic blood pressure of subjects.
FIG. 20 compares the effects of Compound 1 treatment, alone (Group 1), or in combination with ranibizumab (Group 2), on subjects with a baseline sitting systolic blood pressure of 140 mmHg or greater, versus those with a baseline sitting systolic blood pressure of less than 140 mmHg. […] The correlation between baseline sitting systolic blood pressure and the change in blood pressure from baseline seen 30 and 90 minutes following specified treatments is shown in FIG. 21 and FIG. 22, respectively.

Setting [1] is: subjects with DME, Compound 1 15 mg subcutaneous, ranibizumab 0.3 mg intravitreal, 30 minutes post-dose.
Setting [2] is: subjects with DME, Compound 1 15 mg subcutaneous, ranibizumab 0.3 mg intravitreal, 90 minutes post-dose.

HPTPβ, sequence (P23467 23-1997): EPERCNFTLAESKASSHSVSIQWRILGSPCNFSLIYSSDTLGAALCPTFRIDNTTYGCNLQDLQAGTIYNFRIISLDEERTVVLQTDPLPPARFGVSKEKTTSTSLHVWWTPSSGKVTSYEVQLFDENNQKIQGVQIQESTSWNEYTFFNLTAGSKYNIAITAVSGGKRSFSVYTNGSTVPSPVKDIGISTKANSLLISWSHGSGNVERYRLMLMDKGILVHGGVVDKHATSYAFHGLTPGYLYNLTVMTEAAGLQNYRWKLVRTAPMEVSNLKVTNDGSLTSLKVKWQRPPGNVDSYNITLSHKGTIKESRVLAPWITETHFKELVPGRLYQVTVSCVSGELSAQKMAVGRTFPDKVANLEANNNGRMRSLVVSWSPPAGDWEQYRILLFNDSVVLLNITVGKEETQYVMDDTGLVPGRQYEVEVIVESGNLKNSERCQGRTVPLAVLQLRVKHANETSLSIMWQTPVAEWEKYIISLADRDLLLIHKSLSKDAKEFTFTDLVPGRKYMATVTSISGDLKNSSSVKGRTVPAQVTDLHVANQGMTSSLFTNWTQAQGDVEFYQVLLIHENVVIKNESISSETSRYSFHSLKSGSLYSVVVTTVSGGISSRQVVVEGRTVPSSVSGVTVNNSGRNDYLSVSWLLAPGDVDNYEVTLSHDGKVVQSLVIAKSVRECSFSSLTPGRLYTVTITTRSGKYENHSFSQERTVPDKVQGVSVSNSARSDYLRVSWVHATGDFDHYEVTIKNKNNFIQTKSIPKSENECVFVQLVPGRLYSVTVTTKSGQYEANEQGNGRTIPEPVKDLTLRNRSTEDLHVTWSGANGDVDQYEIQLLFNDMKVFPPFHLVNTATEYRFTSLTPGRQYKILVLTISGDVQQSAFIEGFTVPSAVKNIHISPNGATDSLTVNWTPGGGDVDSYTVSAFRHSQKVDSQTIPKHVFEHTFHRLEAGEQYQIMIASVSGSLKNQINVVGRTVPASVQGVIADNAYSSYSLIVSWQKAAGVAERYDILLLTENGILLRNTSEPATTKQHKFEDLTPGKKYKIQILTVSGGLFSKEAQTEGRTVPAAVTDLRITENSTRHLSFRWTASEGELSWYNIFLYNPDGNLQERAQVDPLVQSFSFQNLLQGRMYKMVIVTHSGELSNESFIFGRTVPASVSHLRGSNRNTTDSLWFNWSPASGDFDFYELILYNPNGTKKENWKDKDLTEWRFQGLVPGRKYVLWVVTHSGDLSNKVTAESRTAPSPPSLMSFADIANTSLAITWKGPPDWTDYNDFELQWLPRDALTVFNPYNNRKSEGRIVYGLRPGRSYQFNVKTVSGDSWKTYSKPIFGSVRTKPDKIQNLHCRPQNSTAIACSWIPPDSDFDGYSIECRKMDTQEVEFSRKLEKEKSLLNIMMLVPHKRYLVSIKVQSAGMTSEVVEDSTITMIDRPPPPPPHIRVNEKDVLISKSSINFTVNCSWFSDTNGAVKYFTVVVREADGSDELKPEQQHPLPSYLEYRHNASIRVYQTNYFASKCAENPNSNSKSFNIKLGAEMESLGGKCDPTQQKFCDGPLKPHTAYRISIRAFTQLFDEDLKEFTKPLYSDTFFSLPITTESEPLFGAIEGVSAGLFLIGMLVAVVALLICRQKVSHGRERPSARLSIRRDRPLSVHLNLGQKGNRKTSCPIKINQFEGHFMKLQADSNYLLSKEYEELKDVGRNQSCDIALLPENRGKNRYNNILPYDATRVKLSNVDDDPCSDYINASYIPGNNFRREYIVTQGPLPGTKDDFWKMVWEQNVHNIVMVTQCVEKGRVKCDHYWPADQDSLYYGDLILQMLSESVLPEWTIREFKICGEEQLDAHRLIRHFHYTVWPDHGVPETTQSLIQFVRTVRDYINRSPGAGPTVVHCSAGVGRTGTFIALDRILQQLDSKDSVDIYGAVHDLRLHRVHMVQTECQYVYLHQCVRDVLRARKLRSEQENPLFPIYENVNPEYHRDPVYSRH

`COC(=O)N[C@@H](Cc1ccccc1)C(=O)N[C@@H](Cc1ccc(NS(=O)(=O)O)cc1)c1nc(-c2ccccc2)cs1` [AA21] showed an IC50 against HPTPβ of less than 0.002 nM.
On the same count and under the same terms, the figure for `CCCc1nc([C@H](Cc2ccc(NS(=O)(=O)O)cc2)NC(=O)OC(C)(C)C)cs1` [AA65] is 40 nM.
For `CC(C)(C)n1nc(-c2ccc(Cl)cc2)c2c(N)ncnc21` [PP2, reference compound], the “basal and Yoda1-induced tyrosine phosphorylation of eNOS” value with eNOS (PP2 1 μmol/L pre-incubation) is reported as “significantly reduced”.
As for `Clc1cccc(Cl)c1CSc1nnc(-c2cnccn2)s1` [Yoda1, reference compound], in the test with eNOS (Yoda1 1 μmol/L, 30 min), the “phosphorylation of Akt and eNOS” value was “elicited the phosphorylation of Akt on Ser473, and phosphorylation of eNOS on Ser1177 and Ser633”.

B1: ANG-1: angiopoietin 1, an agonist of Tie-2 (protein, UniProt Q15389 16-498, looked up)
Angiopoietin-1: HIGCSNQRRSPENSGRRYNRIQHGQCAYTFILPEHDGNCRESTTDQYNTNALQRDAPHVEPDFSSQKLQHLEHVMENYTQWLQKLENYIVENMKSEMAQIQQNAVQNHTATMLEIGTSLLSQTAEQTRKLTDVETQVLNQTSRLEIQLLENSLSTYKLEKQLLQQTNEILKIHEKNSLLEHKILEMEGKHKEELDTLKEEKENLQGLVTRQTYIIQELEKQLNRATTNNSVLQKQQLELMDTVHNLVNLCTKEGVLLKGGKREEEKPFRDCADVYQAGFNKSGIYTIYINNMPEPKKVFCNMDVNGGGWTVIQHREDGSLDFQRGWKEYKMGFGNPSGEYWLGNEFIFAITSQRQYMLRIELMDWEGNRAYSQYDRFHIGNEKQNYRLYLKGHTGTAGKQSSLILHGADFSTKDADNDNCMCKCALMLTGGWWFDACGPSNLNGMFYTAGQNHGKLNGIKWHYFKGPSYSLRSTTMMIRPLDF
In the case of B1, the “Tie-2 phosphorylation (p-Tyr)” value in the test on Tie-2 is “did not increase Tie-2 phosphorylation”.

B2: ranibizumab (antibody, chains of the INN, looked up, V domains shown)
VH: EVQLVESGGGLVQPGGSLRLSCAASGYDFTHYGMNWVRQAPGKGLEWVGWINTYTGEPTYAADFKRRFTFSLDTSKSTAYLQMNSLRAEDTAVYYCAKYPYYYGTSHWYFDVWGQGTLVTVSS
VL: DIQLTQSPSSLSASVGDRVTITCSASQDISNYLNWYQQKPGKAPKVLIYFTSSLHSGVPSRFSGSGSGTDFTLTISSLQPEDFATYYCQQYSTVPWTFGQGTKVEIK
modifications: Fab
For B2, the blood pressure change result in the test with subjects with DME (baseline sitting SBP 140 mmHg or greater, ranibizumab alone (Group 3)) is given as “Minimal change in blood pressure”. In addition, in the test with subjects with DME (ranibizumab 0.3 mg intravitreal alone (Group 3), 30 and 90 minutes post-dose), the “decrease in sitting systolic blood pressure compared to baseline” value is listed as “not seen”.

B3: Placebo + Ranibizumab (antibody, chains of the INN, looked up, V domains shown)
VH: B2 VH
VL: B2 VL
modifications: Fab with placebo
B3: in the test on subjects with DME (setting [1]), the “Sitting systolic blood pressure, Change from pre-dose to 30 minutes post-dose, Max” value was found to be 31 mmHg; the “Sitting systolic blood pressure, Change from pre-dose to 30 minutes post-dose, Mean (SD)” value is given as 2.2 (14.32) mmHg; the “Sitting systolic blood pressure, Change from pre-dose to 30 minutes post-dose, Median” value came out at 1.0 mmHg; the “Sitting systolic blood pressure, Change from pre-dose to 30 minutes post-dose, Min” value is given as −37 mmHg. Moreover, in the test on subjects with DME (setting [2]), the “Sitting systolic blood pressure, Change from pre-dose to 90 minutes post-dose, Max” value turned out to be 35 mmHg; the “Sitting systolic blood pressure, Change from pre-dose to 90 minutes post-dose, Mean (SD)” value is on record as −0.1 (14.46) mmHg; the “Sitting systolic blood pressure, Change from pre-dose to 90 minutes post-dose, Median” value is on record as 2.0 mmHg; the “Sitting systolic blood pressure, Change from pre-dose to 90 minutes post-dose, Min” value is listed as −30 mmHg.
